According to patent US20230279151A1 (Sanofi, published 2023):
Blank lines part the entries; values can stand above or below the binder they belong to.

What was measured:
[1] = molecular target: T1, human IL4 (IL004, Millipore) (human, UniProt P05112 25-153); assay: SPR, Biacore 3000, antibody captured by anti-human Fc, IL4 as analyte; HEK293-FS, co-expressed with hFurin-KDEL (SEQ ID NO 38)
T1 construct: Commercial recombinant antigen; also called Antigen IL4
T1 sequence (looked up): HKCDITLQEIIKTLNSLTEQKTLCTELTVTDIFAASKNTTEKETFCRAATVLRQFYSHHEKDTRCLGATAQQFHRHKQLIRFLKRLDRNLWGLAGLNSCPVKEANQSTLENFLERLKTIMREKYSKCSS
Procedure: (§1) Binding of antigens to the antibody constructs was measured using surface plasmon resonance (SPR) with a BlAcore 3000 instrument (GE Healthcare) with HBS-EP buffer (GE Healthcare). As antigens, human IL4 (IL004, Millipore) and human IL13 (IL012, Millipore) were used. The antihuman Fc capture antibody (human antibody capture kit, GE Life Sciences) was immobilized via primary amine groups (11000 RU) on a research grade CM5 chip (GE Life Sciences) using standard procedures. […] The tested antibody constructs were […] and injected at 100 nM concentration for 240 sec with a dissociation time of 300 sec at a flow rate of 30 µL/min. For human IL4 and IL13, a dilution series of 0.1 nM to 3 nM and 0.8 nM to 25 nM, respectively were used. Chip surfaces were regenerated with 2 min injects of the regeneration buffer provided with the capture kit. Sensorgrams were double-referenced with a blank chip surface and HBS-EP buffer blanks. Data analysis was performed using the BIAevaluation software v4.1.
(§2) The binding of the different bispecific Tandem-IgG constructs expressed in HEK293-FS or ExpiCHO cells as well as in vivo processed Tandem-IgG from the co-transfection with Furin variants was measured via surface plasmon resonance (SPR). The binding to the two human antigens IL4 and IL13 were compared to the binding characteristics of the individual monoclonal antibodies. […] In contrast, specific binding to IL13 was only detectable for in vivo processed Tandem-IgGs as well as the Tandem-lgG control comprising two LCs. […] Thus, processing of the linker sequence connecting the VLb (VL against IL13) at the inner position of the Tandem-lgG with the CK domain of the IL4 binding Fab at the outer position is required for a functional IL13 binding site. In vivo processing can thereby be mediated via endogenously expressed proteases or via co-transfected Furin variants.

[2] = molecular target: T1, human IL4 (IL004, Millipore); assay: SPR, Biacore 3000, antibody captured by anti-human Fc, IL4 as analyte; HEK293-FS, co-expressed with hFurin (SEQ ID NO 37)
Procedure: as §1, §2

[3] = molecular target: T1, human IL4 (IL004, Millipore); assay: SPR, Biacore 3000, antibody captured by anti-human Fc, IL4 as analyte; second block of the table (presumably ExpiCHO expression), processed in vivo
Procedure: as §1, §2

[4] = molecular target: T1, human IL4 (IL004, Millipore); assay: SPR, Biacore 3000, antibody captured by anti-human Fc, IL4 as analyte; HEK293-FS expression, processed in vivo
Procedure: as §1, §2

[5] = molecular target: T1, human IL4 (IL004, Millipore); assay: SPR, Biacore 3000, antibody captured by anti-human Fc, IL4 as analyte; HEK293-FS expression
Procedure: as §1, §2

Kd [1]: 1.86 pM
koff [1]: 0.000299 s⁻¹
kon [1]: 1.61e+08 M⁻¹ s⁻¹
Kd [2]: 1.53 pM
koff [2]: 0.000211 s⁻¹
kon [2]: 1.38e+08 M⁻¹ s⁻¹
B1: sLC-Tandem-(anti-IL4xanti-IL13)-His8-PCL1-huIgG1 (bispecific antibody)
light: DIQMTQSPASLSVSVGDTITLTCHASQNIDVWLSWFQQKPGNIPKLLIYKASNLHTGVPSRFSGSGSGTGFTLTISSLQPEDIATYYCQQAHSYPFTFGGGTKLEIKRTVAAPSVFIFPPSDEQLKSGTASVVCLLNNFYPREAKVQWKVDNALQSGNSQESVTEQDSKDSTYSLSSTLTLSKADYEKHKVYACEVTHQGLSSPVTKSFNRGECRRKR
chain: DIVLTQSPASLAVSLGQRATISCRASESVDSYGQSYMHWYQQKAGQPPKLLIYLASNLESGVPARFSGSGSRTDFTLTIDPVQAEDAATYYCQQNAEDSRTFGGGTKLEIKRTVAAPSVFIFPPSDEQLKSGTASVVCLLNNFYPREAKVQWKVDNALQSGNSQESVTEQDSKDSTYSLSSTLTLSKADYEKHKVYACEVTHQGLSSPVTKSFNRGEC
heavy: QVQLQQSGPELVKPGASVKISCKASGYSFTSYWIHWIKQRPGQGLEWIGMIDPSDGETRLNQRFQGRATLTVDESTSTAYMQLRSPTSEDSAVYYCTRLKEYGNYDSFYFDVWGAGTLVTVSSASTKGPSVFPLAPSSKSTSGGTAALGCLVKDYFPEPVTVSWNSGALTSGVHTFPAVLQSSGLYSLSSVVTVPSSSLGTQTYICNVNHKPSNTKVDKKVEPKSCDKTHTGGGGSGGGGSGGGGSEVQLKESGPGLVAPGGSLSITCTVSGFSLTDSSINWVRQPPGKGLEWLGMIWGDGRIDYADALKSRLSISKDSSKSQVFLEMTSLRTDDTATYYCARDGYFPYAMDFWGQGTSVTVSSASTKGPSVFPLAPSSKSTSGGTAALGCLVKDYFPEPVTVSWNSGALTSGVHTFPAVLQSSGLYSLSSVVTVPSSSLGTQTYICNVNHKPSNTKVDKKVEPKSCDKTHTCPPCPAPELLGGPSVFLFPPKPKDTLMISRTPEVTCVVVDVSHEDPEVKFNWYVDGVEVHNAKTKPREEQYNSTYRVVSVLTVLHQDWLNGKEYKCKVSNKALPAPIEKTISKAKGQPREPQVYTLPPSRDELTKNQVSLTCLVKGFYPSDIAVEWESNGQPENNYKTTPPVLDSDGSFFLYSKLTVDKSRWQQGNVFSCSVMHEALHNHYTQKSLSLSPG
notes: In both the single light chain was processed in vivo; also called 17, 13 with 37; 17, 13 with 38

Kd [3]: 1.33 pM
koff [3]: 0.000249 s⁻¹
kon [3]: 1.87e+08 M⁻¹ s⁻¹
Kd [4]: 1.05 pM
koff [4]: 0.000189 s⁻¹
kon [4]: 1.79e+08 M⁻¹ s⁻¹
B2: sLC-Tandem-(anti-IL4xanti-IL13)-PCL2-huIgG1 (bispecific antibody)
light: DIQMTQSPASLSVSVGDTITLTCHASQNIDVWLSWFQQKPGNIPKLLIYKASNLHTGVPSRFSGSGSGTGFTLTISSLQPEDIATYYCQQAHSYPFTFGGGTKLEIKRTVAAPSVFIFPPSDEQLKSGTASVVCLLNNFYPREAKVQWKVDNALQSGNSQESVTEQDSKDSTYSLSSTLTLSKADYEKHKVYACEVTHQGLSSPVTKSFNRGECHRRRKR
chain: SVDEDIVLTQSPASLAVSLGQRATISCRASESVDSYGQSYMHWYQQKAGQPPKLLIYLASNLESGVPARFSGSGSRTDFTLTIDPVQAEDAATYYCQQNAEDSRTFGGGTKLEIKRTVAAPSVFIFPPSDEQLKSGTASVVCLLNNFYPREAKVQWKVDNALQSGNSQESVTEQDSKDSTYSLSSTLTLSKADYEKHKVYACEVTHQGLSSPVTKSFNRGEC
heavy: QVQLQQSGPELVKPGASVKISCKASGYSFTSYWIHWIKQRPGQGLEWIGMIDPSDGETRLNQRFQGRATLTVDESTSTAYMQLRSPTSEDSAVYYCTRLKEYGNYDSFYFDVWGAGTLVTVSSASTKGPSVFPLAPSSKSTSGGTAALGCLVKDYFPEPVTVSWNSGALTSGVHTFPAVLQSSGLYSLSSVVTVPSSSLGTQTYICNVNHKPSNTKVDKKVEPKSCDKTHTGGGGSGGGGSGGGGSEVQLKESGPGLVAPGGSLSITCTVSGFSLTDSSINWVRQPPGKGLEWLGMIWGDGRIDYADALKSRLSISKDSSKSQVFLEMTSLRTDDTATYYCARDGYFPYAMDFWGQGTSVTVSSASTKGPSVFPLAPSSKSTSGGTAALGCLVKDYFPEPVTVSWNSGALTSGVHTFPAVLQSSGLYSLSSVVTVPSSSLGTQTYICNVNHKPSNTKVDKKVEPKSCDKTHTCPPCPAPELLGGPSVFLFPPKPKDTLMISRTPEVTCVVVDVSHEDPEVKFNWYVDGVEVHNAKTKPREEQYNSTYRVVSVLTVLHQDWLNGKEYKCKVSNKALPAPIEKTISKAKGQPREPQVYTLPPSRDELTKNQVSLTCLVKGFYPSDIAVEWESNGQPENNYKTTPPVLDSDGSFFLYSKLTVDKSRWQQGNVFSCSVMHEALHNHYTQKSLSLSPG
notes: also called sLC-PCL2-Tandem-IgG; sLC Tandem-IgG-PCL2

Kd [5]: 2.32 pM
koff [5]: 0.000149 s⁻¹
kon [5]: 6.39e+07 M⁻¹ s⁻¹
B3: Tandem-(anti-IL4xanti-IL13)-huIgG1 (bispecific antibody)
light 1: DIQMTQSPASLSVSVGDTITLTCHASQNIDVWLSWFQQKPGNIPKLLIYKASNLHTGVPSRFSGSGSGTGFTLTISSLQPEDIATYYCQQAHSYPFTFGGGTKLEIKRTVAAPSVFIFPPSDEQLKSGTASVVCLLNNFYPREAKVQWKVDNALQSGNSQESVTEQDSKDSTYSLSSTLTLSKADYEKHKVYACEVTHQGLSSPVTKSFNRGEC
light 2: not shown
heavy: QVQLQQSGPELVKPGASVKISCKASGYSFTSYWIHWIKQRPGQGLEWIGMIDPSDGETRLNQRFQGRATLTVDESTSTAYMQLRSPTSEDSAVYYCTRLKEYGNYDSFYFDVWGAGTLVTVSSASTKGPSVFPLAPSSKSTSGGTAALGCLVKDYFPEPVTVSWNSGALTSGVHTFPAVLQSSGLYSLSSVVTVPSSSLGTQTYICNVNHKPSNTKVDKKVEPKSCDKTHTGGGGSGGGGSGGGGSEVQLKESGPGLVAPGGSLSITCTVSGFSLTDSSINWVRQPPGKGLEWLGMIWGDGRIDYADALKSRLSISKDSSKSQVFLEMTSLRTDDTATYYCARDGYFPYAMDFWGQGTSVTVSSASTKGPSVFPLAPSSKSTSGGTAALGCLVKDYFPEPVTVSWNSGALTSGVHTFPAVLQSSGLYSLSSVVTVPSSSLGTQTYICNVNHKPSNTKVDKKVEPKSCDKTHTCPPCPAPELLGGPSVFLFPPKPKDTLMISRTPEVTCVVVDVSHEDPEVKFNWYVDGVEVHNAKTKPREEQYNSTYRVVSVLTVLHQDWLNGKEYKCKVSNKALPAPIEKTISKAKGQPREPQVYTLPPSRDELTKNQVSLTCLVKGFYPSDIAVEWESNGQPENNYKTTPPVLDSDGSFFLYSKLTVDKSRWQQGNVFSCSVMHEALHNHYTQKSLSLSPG
notes: Control with the two light chains expressed as separate chains; also called Tandem-IgG control; control Tandem-IgG
